Patent publication US20120316071A1 (published 2012)
Each block holds one binder with its values, some of them ahead of it.

What was measured:
[1] = target: T1, rHuman EGF R/Fc Chimera, CF (R&D Systems Cat#344-ER) (human, UniProt P00533 25-645); experiment: MSD multispot ECL, antigen spotted on plate, Fab 1410 nM; blank spot 709
T1 construct: Bought from R&D Systems; also called epidermal growth factor receptor (EGF R); not shown: Fc of the bought chimera

[2] = target: T2, Recombinant Human DLL4 (R&D Systems Cat#1506-D4/CF) (human, UniProt Q9NR61 27-524); experiment: as above
T2 construct: Bought from R&D Systems; also called rHuman DLL4; delta-like protein 4

[3] = target: T3, rHuman ErbB2/Fc Chimera, CF (R&D Systems Cat#1129-ER) (human, UniProt P04626 23-652); experiment: as above
T3 construct: Bought from R&D Systems; also called human epidermal growth factor 2 receptor (ErbB2); not shown: Fc of the bought chimera

[4] = target: T4, rHuman CD44/Fc Chimera, CF (R&D Systems Cat#3660-CD) (human, UniProt P16070 21-220); experiment: as above
T4 construct: Bought from R&D Systems; not shown: Fc of the bought chimera

[5] = target: T5, rHuman Notch-1/Fc Chimera, CF (R&D Systems Cat#3647-TK) (human, UniProt P46531 19-526); experiment: as above
T5 construct: Bought from R&D Systems; not shown: Fc of the bought chimera

[6] = target: T6, rHuman P-Cadherin/Fc Chimera, CF (R&D Systems Cat#861-PC) (human, UniProt P22223 108-654); experiment: as above
T6 construct: Bought from R&D Systems; not shown: Fc of the bought chimera

[7] = target: T7, rHuman IGF-1 sR, (IGF-1 sR), CF (R&D Systems Cat#391-GR) (human, UniProt P08069 31-932); experiment: as above
T7 construct: Bought from R&D Systems and called a soluble receptor; also called insulin-like growth factor-1 soluble receptor

[8] = target: T8, rHuman Erythropoietin R/Fc Chimera, CF (R&D Systems Cat#963-ER) (human, UniProt P19235 25-250); experiment: as above
T8 construct: Bought from R&D Systems; also called EPO R/Fc; Epo R/Fc chimera; not shown: Fc of the bought chimera
T8 sequence (looked up): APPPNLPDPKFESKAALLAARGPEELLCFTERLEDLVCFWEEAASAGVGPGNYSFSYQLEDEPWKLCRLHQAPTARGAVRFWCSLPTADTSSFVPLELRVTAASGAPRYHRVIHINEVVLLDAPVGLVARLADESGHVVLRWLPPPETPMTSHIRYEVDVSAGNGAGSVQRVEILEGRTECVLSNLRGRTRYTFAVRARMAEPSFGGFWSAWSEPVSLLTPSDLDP

[9] = target: T9, rHuman HGF R/c-MET/Fc Chimera, CF (R&D Systems Cat#358-MT/CF) (human, UniProt P08581 25-932); experiment: as above
T9 construct: Bought from R&D Systems; also called HGF R/Fc; hepatocyte growth factor receptor (HGF R/c-Met); not shown: Fc of the bought chimera
T9 sequence (P08581 25-932, change not shown): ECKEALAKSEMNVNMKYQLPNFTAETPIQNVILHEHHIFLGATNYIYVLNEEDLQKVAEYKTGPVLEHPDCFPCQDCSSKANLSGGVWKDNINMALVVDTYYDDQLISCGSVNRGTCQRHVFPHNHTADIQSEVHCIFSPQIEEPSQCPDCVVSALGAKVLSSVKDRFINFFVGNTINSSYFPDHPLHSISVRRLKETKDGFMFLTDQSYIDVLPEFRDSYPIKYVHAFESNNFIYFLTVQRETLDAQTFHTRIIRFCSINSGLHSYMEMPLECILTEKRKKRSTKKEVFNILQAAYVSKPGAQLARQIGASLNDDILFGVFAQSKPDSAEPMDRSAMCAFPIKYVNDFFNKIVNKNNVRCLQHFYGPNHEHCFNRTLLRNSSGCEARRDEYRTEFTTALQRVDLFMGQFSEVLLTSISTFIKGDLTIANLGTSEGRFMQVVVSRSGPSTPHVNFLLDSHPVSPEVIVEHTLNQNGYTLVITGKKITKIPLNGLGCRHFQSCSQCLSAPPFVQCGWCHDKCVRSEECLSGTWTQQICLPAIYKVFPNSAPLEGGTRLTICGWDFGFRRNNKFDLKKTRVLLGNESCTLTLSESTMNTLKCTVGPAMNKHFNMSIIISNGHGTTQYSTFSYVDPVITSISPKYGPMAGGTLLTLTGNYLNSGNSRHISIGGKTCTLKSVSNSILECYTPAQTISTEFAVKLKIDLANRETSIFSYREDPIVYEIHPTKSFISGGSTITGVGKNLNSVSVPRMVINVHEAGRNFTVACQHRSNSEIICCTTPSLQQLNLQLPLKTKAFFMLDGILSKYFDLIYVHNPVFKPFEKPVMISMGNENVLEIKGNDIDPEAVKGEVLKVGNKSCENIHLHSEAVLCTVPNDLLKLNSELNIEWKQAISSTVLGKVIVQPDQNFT

[10] = target: T10, rHuman EGF R/Fc Chimera, CF (R&D Systems Cat#344-ER) (human, UniProt P00533 25-645); experiment: ECL Multispot (MSD), antigen spotted; Fab 0.50 (µM); blank 142
T10 construct: Bought recombinant protein; Fc part of the bought chimera not given

[11] = target: T11, rHuman Notch-1/Fc Chimera, CF (R&D Systems Cat#3647-TK) (human, UniProt P46531 19-526); experiment: as above
T11 construct: Bought recombinant protein; Fc part of the bought chimera not given

[12] = target: T12, Recombinant Human DLL4 (R&D Systems Cat#1506-D4/CF) (human, UniProt Q9NR61 27-529); experiment: as above
T12 construct: Bought recombinant protein; also called delta-like protein 4; rHuman DLL4

[13] = target: T13, Recombinant Human DLL4 (R&D Systems Cat#1506-D4/CF) (human, UniProt Q9NR61 27-524); experiment: Multispot ECL (MSD), antigen spotted on plate, Fab 1000 nM; blank spot 1133
T13 construct: Bought recombinant protein; also called rHuman DLL4; delta-like protein 4

[14] = target: T14, rHuman Erythropoietin R/Fc Chimera, CF (R&D Systems Cat#963-ER) (human, UniProt P19235 25-250); experiment: as above
T14 construct: Bought recombinant protein; also called EPO R/Fc; Epo R; Fc part of the bought chimera not given
T14 sequence (looked up): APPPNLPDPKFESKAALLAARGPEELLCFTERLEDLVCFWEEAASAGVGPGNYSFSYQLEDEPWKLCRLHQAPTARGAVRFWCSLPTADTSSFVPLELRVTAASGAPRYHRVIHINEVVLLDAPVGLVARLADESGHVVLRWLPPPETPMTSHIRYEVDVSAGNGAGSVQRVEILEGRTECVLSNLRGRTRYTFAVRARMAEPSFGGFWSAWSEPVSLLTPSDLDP

[15] = target: T15, rHuman Notch-1/Fc Chimera, CF (R&D Systems Cat#3647-TK) (human, UniProt P46531 19-526); experiment: as above
T15 construct: Bought recombinant protein; Fc part of the bought chimera not given

[16] = target: T16, rHuman IGF-1 sR, CF (R&D Systems Cat#391-GR) (human, UniProt P08069 31-932); experiment: as above
T16 construct: Bought recombinant soluble receptor; also called insulin-like growth factor-1 soluble receptor

ECL signal [1]: 1070
ECL signal [2]: 1260
ECL signal [3]: 932
ECL signal [4]: 885
ECL signal [5]: 1030
ECL signal [6]: 1060
ECL signal [7]: 426
ECL signal [8]: 4310
ECL signal [9]: 903
B1: Fab VH1-46_IGHD3-10*01_IGHJ4*01 & B3_IGKJ1*01 (Fab, V domains shown)
VH: QVQLVQSGAEVKKPGASVKVSCKASGYTFTSYYMHWVRQAPGQGLEWMGIINPSGGSTSYAQKFQGRVTMTRDTSTSTVYMELSSLRSEDTAVYYCAREYYYGSGSYYNDYFDYWGQGTLVTVSS
VL: not shown
notes: Tested as a Fab made in E. coli; VH was cloned into Plasmid A (CH1 constant region, His6 and Flag tags); The kappa VL was cloned into Plasmid C (kappa CL)

ECL signal [10]: 152
ECL signal [11]: 230
ECL signal [12]: 6670
B2: Fab VH1-46_IGHD6-6*01_IGHJ1*01 S102A/S103P/S104F (APF) & L6_IGKJ1*01 (Fab, V domains shown)
VH: QVQLVQSGAEVKKPGASVKVSCKASGYTFTSYYMHWVRQAPGQGLEWMGIINPSGGSTSYAQKFQGRVTMTRDTSTSTVYMELSSLRSEDTAVYYCAREEYAPFSAEYFQHWGQGTLVTVSS
VL: not shown
notes: Tested as a Fab made in E. coli: VH cloned in Plasmid A (CH1 constant region, His6 and Flag tags), VL in Plasmid C (kappa constant region); also called H:APF & L:wt; APF triple mutant

ECL signal [13]: 2780
ECL signal [14]: 8590
ECL signal [15]: 2270
ECL signal [16]: 1670
B3: Fab VH1-46_IGHD6-13*01_IGHJ4*01 & B3_IGKJ1*01 (Fab, V domains shown)
VH: QVQLVQSGAEVKKPGASVKVSCKASGYTFTSYYMHWVRQAPGQGLEWMGIINPSGGSTSYAQKFQGRVTMTRDTSTSTVYMELSSLRSEDTAVYYCAREGYSSSWYDYFDYWGQGTLVTVSS
VL: not shown
notes: Germline Fab made in E. coli; VH was cloned into Plasmid A (CH1, His6 and Flag tags) and the kappa VL into Plasmid C (kappa CL)
